The source of these data is patent US20140194025A1, “Production of Highly Concentrated Solutions of Self-Assembling Proteins” (Freudenberg Forschungsdienste KG, priority 2010, published 2014).

The series is described as follows: Solubility of the hydrophobic protein and its fragments. It counts as physicochemical.

B1: R16 protein: synthetic combination protein formed from silk proteins and resilins, polypeptide sequence SEQ ID NO: 4 (protein)
chain: MASMTGGQQMGRGSMGPGSSAAAAAAAASGPGQGQGQGQGQGGRPSDTYGPGSSAAAAAAAASGPGQGQGQGQGQGGRPSDTYGPGSSAAAAAAAASGPGQGQGQGQGQGGRPSDTYGPGSSAAAAAAAASGPGQGQGQGQGQGGRPSDTYGPGSSAAAAAAAASGPGQGQGQGQGQGGRPSDTYGPGSSAAAAAAAASGPGQGQGQGQGQGGRPSDTYGPGSSAAAAAAAASGPGQGQGQGQGQGGRPSDTYGPGSSAAAAAAAASGPGQGQGQGQGQGGRPSDTYGPGSSAAAAAAAASGPGQGQGQGQGQGGRPSDTYGPGSSAAAAAAAASGPGQGQGQGQGQGGRPSDTYGPGSSAAAAAAAASGPGQGQGQGQGQGGRPSDTYGPGSSAAAAAAAASGPGQGQGQGQGQGGRPSDTYGPGSSAAAAAAAASGPGQGQGQGQGQGGRPSDTYGPGSSAAAAAAAASGPGQGQGQGQGQGGRPSDTYGPGSSAAAAAAAASGPGQGQGQGQGQGGRPSDTYGPGSSAAAAAAAASGPGQGQGQGQGQGGRPSDTYG
Take B1: the solubility in water result is “about 1%”.
